Consider 5 molecules from paper PMC5778458.

Where two headings read alike, the source gives them in different places.

Common to all, as to assay: filter binding
The target in data set [1] is T1, Cbf5p;Nop10p;Gar1p;Nhp2p (Saccharomyces cerevisiae;Saccharomyces …, UniProt P33322;Q6Q547;P28007;P32495 1-483;1-58;1-205;1-156, |||).
T1 sequence 1: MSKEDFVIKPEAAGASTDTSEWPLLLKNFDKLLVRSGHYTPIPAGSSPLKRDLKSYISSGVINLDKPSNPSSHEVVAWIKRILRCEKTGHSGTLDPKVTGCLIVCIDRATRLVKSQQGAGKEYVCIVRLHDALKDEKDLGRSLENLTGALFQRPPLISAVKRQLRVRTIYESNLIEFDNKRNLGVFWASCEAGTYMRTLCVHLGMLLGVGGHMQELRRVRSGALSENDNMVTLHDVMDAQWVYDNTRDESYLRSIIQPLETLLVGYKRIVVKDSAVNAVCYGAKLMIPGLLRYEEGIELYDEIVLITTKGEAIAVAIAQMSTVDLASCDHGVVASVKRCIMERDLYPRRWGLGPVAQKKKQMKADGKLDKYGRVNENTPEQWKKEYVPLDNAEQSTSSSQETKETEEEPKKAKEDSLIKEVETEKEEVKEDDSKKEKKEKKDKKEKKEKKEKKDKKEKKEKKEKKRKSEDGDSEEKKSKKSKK
T1 sequence 2: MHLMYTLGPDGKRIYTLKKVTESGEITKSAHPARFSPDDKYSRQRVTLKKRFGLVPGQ
T1 sequence 3: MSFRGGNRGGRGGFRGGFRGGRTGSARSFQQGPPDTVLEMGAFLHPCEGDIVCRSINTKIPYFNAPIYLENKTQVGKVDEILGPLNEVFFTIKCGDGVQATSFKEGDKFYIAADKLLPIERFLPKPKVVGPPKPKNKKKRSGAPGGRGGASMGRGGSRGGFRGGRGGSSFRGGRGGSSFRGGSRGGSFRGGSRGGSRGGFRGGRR
T1 sequence 4: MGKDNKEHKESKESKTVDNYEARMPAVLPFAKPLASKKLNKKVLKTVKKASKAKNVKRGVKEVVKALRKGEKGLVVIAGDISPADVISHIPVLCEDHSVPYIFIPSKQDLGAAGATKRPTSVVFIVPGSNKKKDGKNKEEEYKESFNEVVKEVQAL

Data set [2] addresses T1, Cbf5p;Nop10p;Gar1p;Nhp2p. This is another data set of the same source.
Data set [3] addresses T2, Cbf5p;Nop10p;Gar1p (Saccharomyces cerevisiae;Saccharomyces …, UniProt P33322;Q6Q547;P28007 1-483;1-58;1-205, ||).
T2 sequence 1: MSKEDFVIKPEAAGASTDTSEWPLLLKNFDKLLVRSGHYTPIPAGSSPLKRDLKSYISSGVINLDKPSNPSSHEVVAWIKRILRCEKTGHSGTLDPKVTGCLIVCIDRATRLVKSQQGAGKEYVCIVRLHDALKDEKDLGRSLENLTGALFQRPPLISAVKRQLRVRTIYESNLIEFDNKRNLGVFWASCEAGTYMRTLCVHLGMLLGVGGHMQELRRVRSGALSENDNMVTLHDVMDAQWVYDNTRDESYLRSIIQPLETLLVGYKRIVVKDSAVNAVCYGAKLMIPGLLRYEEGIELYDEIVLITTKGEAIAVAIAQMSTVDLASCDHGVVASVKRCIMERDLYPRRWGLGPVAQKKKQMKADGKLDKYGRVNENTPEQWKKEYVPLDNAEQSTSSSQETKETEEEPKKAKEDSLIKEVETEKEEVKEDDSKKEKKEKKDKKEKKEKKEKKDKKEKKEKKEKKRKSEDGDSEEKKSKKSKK
T2 sequence 2: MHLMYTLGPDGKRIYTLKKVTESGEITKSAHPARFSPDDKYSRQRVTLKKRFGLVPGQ
T2 sequence 3: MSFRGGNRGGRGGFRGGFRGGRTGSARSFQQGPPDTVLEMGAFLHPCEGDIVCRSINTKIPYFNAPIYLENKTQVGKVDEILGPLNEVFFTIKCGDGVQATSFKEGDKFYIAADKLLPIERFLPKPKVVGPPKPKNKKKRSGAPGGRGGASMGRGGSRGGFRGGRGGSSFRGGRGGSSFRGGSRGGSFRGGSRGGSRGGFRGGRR

Data set [4] addresses T1, Cbf5p;Nop10p;Gar1p;Nhp2p. This is another data set of the same source.

Molecule GGGACGUCGGCUCUUCCUAUCAUACC (mixed) [snR34 delta Box H guide + 3' substrate RNA] displayed a Kd in data set [1] of 90 ± 30 nM.

B1: snR34 5' HP extended stem (structured_RNA)
RNA: GGGAAUCAAAAAUUUAUUUUUUACACGGAAACGAUGCCACAGUUGACUGAACCUGUCUUCUAACAGUAGUUAAUUGCCAGUAUUUCCGUGUAAACAAGA
Molecule B1 came in with a Kd in data set [2] of 1.3 ± 0.5 nM.
GGGACGUCGGCUCUUCCUAUCAUACC (mixed) [snR34 guide + 3' substrate RNA]: the Kd in data set [3] was determined as 90 ± 20 nM.
As to GGGGACAACUGGCUUGUGGCAGCCA (mixed) [snR34 guide + 5' substrate RNA], the figures for the Kd in data set [3] and in data set [4] were 50 ± 20 nM and 53 ± 22 nM, respectively.
The molecule GGGACGUCGGCUCUUCCUAUCAUACC (mixed) [snR34 delta Box ACA guide + 3' substrate RNA] registered a Kd in data set [1] of 150 ± 30 nM.

The Kd is the free concentration of one partner at which half of the binding sites on the other are occupied at equilibrium, for simple one-to-one binding. Read a low Kd as higher affinity.
